According to article PMC4118026:
“And” between values parts separate entries of the source, which are not always exact repeats. Equal entries are not always repeated.

Target: T1, apoptosis-associated speck-like protein containing a CARD (mouse (endogenous in primary cortical astrocytes)), Q9EPB4
T1 chain: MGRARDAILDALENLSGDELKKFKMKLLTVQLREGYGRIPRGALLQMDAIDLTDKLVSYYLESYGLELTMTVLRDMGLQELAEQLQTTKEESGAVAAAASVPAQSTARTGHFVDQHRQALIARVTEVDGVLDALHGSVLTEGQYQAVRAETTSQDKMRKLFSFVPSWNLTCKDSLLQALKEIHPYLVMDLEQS
Assay: cross-linking; astrocytes treated with ATP, LPS or ethanol, lysed in PBS/Triton 0.5%; 8000 x g pellets cross-linked with 2 mM DSS for 30 min at room temperature; 12% SDS-PAGE, blot with anti-mouse ASC
Conditions: remark: other sources report otherwise

B1: apoptosis-associated speck-like protein containing a CARD, Q9EPB4 1-193 (natural protein)
chain: MGRARDAILDALENLSGDELKKFKMKLLTVQLREGYGRIPRGALLQMDAIDLTDKLVSYYLESYGLELTMTVLRDMGLQELAEQLQTTKEESGAVAAAASVPAQSTARTGHFVDQHRQALIARVTEVDGVLDALHGSVLTEGQYQAVRAETTSQDKMRKLFSFVPSWNLTCKDSLLQALKEIHPYLVMDLEQS
B1 was tested, and the stoichiometry N was 2 and 3.
